# B1: FLAG-AT2R-CFP (angiotensin II type 2 receptor) [human] / HA-AT1R-YFP (angiotensin II type 1 receptor) [human] (parent)
# chain 1: MKGNSTLATTSKNITSGLHFGLVNISGNNESTLNCSQKPSDKHLDAIPILYYIIFVIGFLVNIVVVTLFCCQKGPKKVSSIYIFNLAVADLLLLATLPLWATYYSYRYDWLFGPVMCKVFGSFLTLNMFASIFFITCMSVDRYQSVIYPFLSQRRNPWQASYIVPLVWCMACLSSLPTFYFRDVRTIEYLGVNACIMAFPPEKYAQWSAGIALMKNILGFIIPLIFIATCYFGIRKHLLKTNSYGKNRITRDQVLKMAAAVVLAFIICWLPFHVLTFLDALAWMGVINSCEVIAVIDLALPFAILLGFTNSCVNPFLYCFVGNRFQQKLRSVFRVPITWLQGKRESMSCRKSSSLREMETFVS
# chain 2: MILNSSTEDGIKRIQDDCPKAGRHNYIFVMIPTLYSIIFVVGIFGNSLVVIVIYFYMKLKTVASVFLLNLALADLCFLLTLPLWAVYTAMEYRWPFGNYLCKIASASVSFNLYASVFLLTCLSIDRYLAIVHPMKSRLRRTMLVAKVTCIIIWLLAGLASLPAIIHRNVFFIENTNITVCAFHYESQNSTLPIGLGLTKNILGFLFPFLIILTSYTLIWKALKKAYEIQKNKPRNDDIFKIIMAIVLFFFFSWIPHQIFTFLDVLIQLGIIRDCRIADIVDTAMPITICIAYFNNCLNPLFYGFLGKKFKRYFLQLLKYIPPKAKSHSNLSTKMSTLSYRPSDNVSSSTKKPAPCFEVE
# Variants of: B1
# Assay: FRET fluorescence microscopy in live HeLa cells (corrected FRET, FRETC)
# Settings: with HA-AT1R-YFP (angiotensin II type 1 receptor) [human]; value read at the end of the time course (about 50 min after AII stimulation at time 0); HeLa cells 24 h after transfection; n = 4; parent: 1.3; read off a …
row,response,Variant
1,0.97 -fold,chain 1 MKGNSTLATTSKNITSGLHFGLVNISGNNESTLNCSQKPSDKHLDAIPILYYIIFVIGFLVNIVVVTLFCCQKGPKKVSSIYIFNLAVADLLLLATLPLWATYYSYRYDWLFGPVMCKVFGSFLTLNMFASIFFITCMSVDRYQSVIYPFLSQRRNPWQASYIVPLVWCMACLSSLPTFYFRDVRTIEYLGVNACIMAFPPEKYAQWSAGIALMKNILGFIIPLIFIATCYFGIRKHLLKTNSYGKNRITRDQVLKMAAAVVLAFIICWLPFHVLTFLDALAWMGVINSCEVIAVIDLALPFAILLGFTNSCVNPFLYCFVGNRFQQKLRSVFRVPITWLQGKRESMSCRKAAALREMETFVS [chain 1 S352A S353A S354A]

# Reference: article PMC4746669, “Attenuation of ligand-induced activation of angiotensin II type 1 receptor signaling by the type 2 receptor via protein kinase C” (Scientific Reports, 2016)
